Data as given in US7494767B2, “Assay for TSG101 as inhibitors of HIV production” (priority 2001, dated 2009).

B1: pIND-h-Tsg101-FLAG: FLAG-tagged wild-type human Tsg101 overexpressed from an ecdysone-inducible plasmid (protein)
chain: MAVSESQLKKMVSKYKYRDLTVRETVNVITLYKDLKPVLDSYVFNDGSSRELMNLTGTIPVPYRGNTYNIPICLWLLDTYPYNPPICFVKPTSSMTIKTGKHVDANGKIYLPYLHEWKHPQSDLLGLIQVMIVVFGDEPPVFSRPISASYPPYQATGPPNTSYMPGMPGGISPYPSGYPPNPSGYPGCPYPPGGPYPATTSSQYPSQPPVTTVGPSRDGTISEDTIRASLISAVSDKLRWRMKEEMDRAQAELNALKRTEEDLKKGHQKLEEMVTRLDQEVAEVDKNIELLKKKDEELSSALEKMENQSENNDIDEVIIPTAPLYKQILNLYAEENAIEDTIFYLGEALRRGVIDLDVFLKHVRLLSRKQFQLRALMQKARKTAGLSDLY
modifications: left off: small tags and cut ends
notes: FLAG-tagged wild-type human Tsg101 overexpressed from an ecdysone-inducible plasmid
B2: SD5-59 (protein)
chain: MAVSESQLKKMVSKYKYRDLTVRETVNVITLYKDLKPVLDSYVFNDGSSRELMNLTGTIPVPYRGNTYNIPICLWLLDTYPYNPPICFVKPTSSMTIKTGKHVDANGKIYLPYLHEWKHPQSDLLGLIQVMIVVFGDEPPVFSRPISASYPPYQATGPPNTSYMPGMPGGISPYPSGYPPNPSGYPGCPYPPGGPYPATTSSQYPSQPPVTTVGPSRDGTISEDTIRASLISAVSDKLRWRMKEEMDRAQAELNALKRTEEDLKKGHQKLEEMVTRLDQEVAEVDKNIELLKKKDEELSSALEKMENQSENNDIDEVIIPTAPLYKQILNLYAEENAIEDTIFYLGEGGVIDLDVFLKHVRLLSRKQFQLRALMQKARKTAGLSDLY
modifications: left off: small tags and cut ends
B3: p1-p6: p1-p6 region of HIV-1 Pr55Gag fused to GAL4 DNA-binding domain (protein)
chain: MKLLSSIEQACDICRLKKLKCSKEKPKCAKCLKNNWECRYSPKTKRSPLTRAHLTEVESRLERLEQLFLLIFPREDLDMILKMDSLQDIKALLTGLFVQDNVNKDAVTDRLASVETDMPLTLRQHRISATSSSEESSNKGQRQLTVSGKIWPSYKGRPGNFLQSRPEPTAPPFLQSRPEPTAPPEESFRSGVETTTPPQKQEPIDKELYPLTSLRSLFGNDPSSQ

Legend:
HIV-1 particles = assay: Release of HIV-1 virus-like particles from transfected COS-1 cells (Western blot of particles, anti-CA); format: cell-based; conditions: for amount of mature CA in released virus, of the control (0 μM pa) level: COS-1 cells with rev, pol and wild-type gag
viral protein (Gag) = assay: Intracellular steady-state level of viral proteins in COS-1 cells (S1 and P1 fractions, Western blot, anti-CA); format: cell-based, HIV-1; conditions: for Gag Δp6 in S1 and P1 fractions: gagΔp6, same conditions; for viral protein in P1 fraction / viral protein in S1 fraction: wild-type gag, pol, rev, conditions of greatest inhibition
Tsg101 = biological target: T1, Tsg101 (Homo sapiens, UniProt Q99816); conditions: N- or C-terminally deleted Pr55^Gag fused to GAL4 DNA-binding domain; FIG. 1A
T1 construct: expressed in transfected cells; host or cells: Saccharomyces cerevisiae Y153
Procedure: 2-hybrid assay. […] Vectors pGBT9 and pGAD424 encoding PR55^Gag or Tsg101 sequences as GAL4 activation and binding domain fusion proteins were transformed into Saccharomyces cerevisiae Y153 using procedures previously described (Bartel, P. L. & Fields, S., 1995, Methods Enzymol. 254,241-263). Briefly, interactions were detected using a selection for Trp and Leu prototrophy followed by quantitative assay for LacZ activation. […] Mapping of the interacting domain was performed using vectors encoding the DNA-binding or activation domain of the yeast GAL4 transcriptional activator protein fused to truncations, deletions or point mutations of the proteins. […] Expression of all GAL4 fusions was checked by analysis of yeast cell extracts by SDS-gel electrophoresis and Western blotting with an antibody directed against the GAL4 binding domain (Upstate Biochemical) and GAL4 transactivation domain (Santa Cruz).

[1] = increasing expression, pa 1 and 5 μM, wild-type gag

Molecule | amount of mature CA in released virus, of the control (0 μM pa) level (HIV-1 particles; 1 μM pa) [%] | amount of mature CA in released virus, of the control (0 μM pa) level (HIV-1 particles; 5 μM pa) [%] | release of immature particles containing GagΔp6 (HIV-1 particles; Tsg101 overexpression, pa 0, 1, 5 μM, gagΔp6) | Gag Δp6 in S1 and P1 fractions (viral protein (Gag)) | viral protein in P1 fraction (viral protein (Gag)) | viral protein in S1 fraction (viral protein (Gag)) | Gag processing in released particles (HIV-1 particles; [1]) | release of virus particles (HIV-1 particles; [1]) | LacZ reporter gene activation signal (Tsg101)
B1 | ~60 | ~30 | not significantly affected | detected in both S1 and P1 fractions | no detectable viral protein | no detectable viral protein | – | – | –
B2 | – | – | – | accumulated at higher levels in both fractions | no protein was found | detectable levels of viral protein | accumulation of particle-associated uncleaved Gag precursor | permitted release of virus particles | –
B3 | – | – | – | – | – | – | – | – | retained
